# From the DeepSol protein solubility set
# Assay: soluble on expression in E. coli; label from the status in PepcDB or PDB records
row,Sequence,soluble on expression in E. coli
1,MFLDRERELQFLERRYEMGGPEFIVIYGRRRVGKTALLLEFISRHGGIYLLARETSNLENLKRFSDRLSEYFGDDFLKRNPFQNWDAFLEYLNQKATERLVVVIDEFPYLVKGDRSLPSILQEYWDLKLSNGRIFLIICGSSISMMEKLLGYKSPIYGRRTGQINLKPVDFLHAREFLPGYSLEDFIKAYGILGGSPAHLLEFDDSKTIKENLLEYLRSDSLLYQDAFFVLREELEEPRNYFAIMEAVAAGKTSLGEIMNETGLSRATVAKYLSVLIELDFVKREIPITASRKSRRGRYYIKDNYFAFWFRYIHPNIDFIESERRKELLELIIDDLPNYLGGIFENVAIEFLPLISNKLPFKPLKIGRWWHKNEEIDLVAFNEKEEKAILIEVKWKTLNKIEANKILKDLNRKSKILKMKEWEQYHGIIAKRVKDKEKIKGGLIWDLEDIENLKFSPELEHHHHHH,not soluble
2,MGSDKIHHHHHHMILSDPRFVALSNWLYQYFGDKVAINLICGDASFRRYFRLHHQGIDYIVSDSPIDLVPIAPFLAMAKAYQHAGLLVPEVLATCNDYGFVLQTDVGELQLLSVLNKDNVTDYYKQALNLLPVIATVTETDNGPLADYDDTFVARELAIFVDWLLKEHLDYVLTDNEQQMIATTFSALTDNVLAQPKVGMHRDYHSRNLLINDQALAVIDFQDAVHGPVTYDAVSLLRDCYVRWPDDIVNHLMRYHYQLAIAHQLIDENVDFATYTKWFDLMGLQRHIKAAGIFARLYHRDGKRGYLADIPLTLQYVADIGIKYPQIADFSLWIHKVILPLVNHKNTHEVVSEA,not soluble
3,LLIGFWDCVTCHGSPVDICTAKPRDIPMNPMCIYRSPEKKATEDEGSEQKIPEATNRRVWELSKANSRFATTFYQHLADSKNDNDNIFLSPLSISTAFAMTKLGACNDTLQQLMEVFKFDTISEKTSDQIHFFFAKLNCRLYRKANKASKLVSANRLFGDKSLTFNETYQDISELVYGAKLQPLDFKENAEQSRAAINKWVSNKTEGRITDVIPSEAINELTVLVLVNTIYFKGLWKSKFSPENTRKELFYKADGESCSASMMYQEGKFRYRRVAEGTQVLELPFKGDDITMVLILPKPEKSLAKVEKELTPEVLQEWLDELEEMMLVVHMPRFRIEDGFSLKEQLQDMGLVDLFSPAASALPGIVAEGRDDLYVSDAFHKAFLEVNEEGSEAAASTAVVIAGRSLNPNRVTFKANRPFLVFIREVPLNTIIFMGRVANPCVK,soluble
4,MGSDKIHHHHHHMPATFAHCLLAREAMERFGKSKLFPGVLKTKNHFVVMGATGPDYPYLTDVMKYGVLHIGHNWANRMHYENIDGFILEGIKKLSSMNKTSEEFKNCLAWFSGYVSHVVADSYLHPVVNSTVHGIYLFTNEKHGRCELVQDIYIFKKMTDTDICAAAARDRNSFGYLSILDDCSDPQDLDKIHPHIRVFWSELLKAAHPYASDYFGDLNLDEWHKNYKGRVDFAADSQSIFRHVLDIANAPRYVPWTASSISKEERSKYIDNVETPRGTKQSYDTLFSLVADQIAATWNALFPYIKNGQVPPATLVKDWNLDTGVDESKIDFWKEA,not soluble
5,APAAVDWRARGAVTAVKDQGQCGSCWAFSAIGNVECQWFLAGHPLTNLSEQMLVSCDKTDSGCSGGLMNNAFEWIVQENNGAVYTEDSYPYASGEGISPPCTTSGHTVGATITGHVELPQDEAQIAAWLAVNGPVAVAVDASSWMTYTGGVMTSCVSEALDHGVLLVGYNDSAAVPYWIIKNSWTTQWGEEGYIRIAKGSNQCLVKEEASSAVVG,soluble
6,LKPDPWADIETRFPVGSRHHARVRNFTNFGVFVEIEEGVDGLIHISDLSWTKKIKHPSEFTEVGADIEVQVIEIDKENRRLSLGHKQLEENPWDVFETVFTVGSIHEGTVIEVMDKGAVVSLPYGVEGFATPKHMVKEDGSQAVLEEKLPFKVIEFNKDAKRIIVSHSRVFEDEQKMAQREANAERKAEAKAAQKEAAAEAANPAQAVEKATLGDLGELAALKEKLSEN,not soluble
7,RFEPSFLDKLFDDEPHVPAPAAMRQLSLEELKNTVARDVEAILNTRIALTEEDLAALPECQRSVLTYGLNDFAGLSLASHYDRTFICKSIQQAIARHEPRLQQVQVTFELNEQSTNALYFAIQALLVVHPAEEPVTFDAMLQPS,not soluble
8,SNAEERLKMSTTTSTQDSGLLKVLLPPFEKKNNVKVDVIAVGTGQALKLGEAGDVDVVFVHARKLEDKFVADGFGVNRKDVMYNDFVIVGPKNDPAGIAKAKTAAEALKLLATKGATFISRGDKSGTHTKELDLWKSAGVDPKGNWYVEAGQGMGPVITMATERRAYTLTDRGTYNAFKGAKTDLVILFQGEKGLFNPYGIMAVNPKKFPHVKYDLAMKLIDYVTGPEGLKIISDY,soluble
9,MDVRELAIQQLKTVLDPELGINVVDLGLIYDLKIEDGHINVLMTLTTPGCPLHDSIAGGVKRALEQIDGVRDVRVQVTWNPPWTPERMSEEALRQLGHFS,not soluble
10,SMRPQPGDGERRYREASARKKIRLDRKYIVSCKQTEVPLSVPWDPSNQVYLSYNNVSSLKMLVAKDNWVLSSEISQVRLYTLEDDKFLSFHMEMVVHVDAAQAFLLLSDLRQRPEWDKHYRSVELVQQVDEDDAIYHVTSPALGGHTKPQDFVILASRRKPCDNGDPYVIALRSVTLPTHRETPEYRRGETLCSGFCLWREGDQLTKVSYYNQATPGVLNYVTTNVAGLSSEFYTTFKACEQFLLDNRNDLAPSLQTL,soluble
11,KTKNEPKVILELAKESDLPEFQKKLQEAFAIAVIETFGDCEDGPIPSDNDVQESFNAPGAVVYHILQDGKNVGGAVVRINSQTNHNSLDLFYVSPEYHSQGIGLSAWKAIEAQYPDTVLWETVTPYFEKRNINFYVNKCGFHIVEFYNEHHSNPHMHRNGR,soluble
12,MGSDKIHHHHHHMPHHQYVLTLSCPDRAGIVSAVSTFLFENGQNILDAQQYNDTESGHFFMRVVFNAAAKVIPLASLRTGFGVIAAKFTMGWHMRDRETRRKVMLLVSQSDHCLADILYRWRVGDLHMIPTAIVSNHPRETFSGFDFGDIPFYHFPVNKDTRRQQEAAITALIAQTHTDLVVLARYMQILSDEMSARLAGRCINIHHSFLPGFKGAKPYHQAFDRGVKLIGATAHYVTSALDEGPIIDQDVERISHRDTPADLVRKGRDIERRVLSRALHYHLDDRVILNGRKTVVFTD,not soluble
13,MGHHHHHHSHMASLAVSNWPKPMPLIPCLSWSTASGVFTTGVLSKPINWRELEKQYYTQTVYEEEIIHMLEYCGTDSFKMGQEFVKHFTSSADKLTNLNLVSRTLNLDISNQVVSQKPADCHNSSKTSVSATSEGLLLQDTSKMKRFNQTLSTNKSGYTSRNPQSYHLLSKEQSRNSLRKESLIFMKGVMDECTHVANFSVPVDPSLIIVVQAKEDAYIPRTGVRSLQEIWPGCEIRYLEGGHISAYLFKQGLFR,soluble
14,MAHHHHHHMDEEVVLRGVEDITCRCVYSHVYVYARVCVFGYVLPSSSVVYRGTLAMECTFGVHEKKNKMKKNKCYLRGQTIGTRDTVCGVMCLNIPPRHCYCSFFLFPFYNPFLL,not soluble
15,MSKTRMEKLKTLKTIAETLNQGHDIKATLDEVLKELLSLTNLQSGWIFLIEEDGSYTLAADAYLPPALSRKEKVLMCEGECYCLTKFNNGGLRKAANIMNCKRIESAENLHCFDTEGITHHATVPLEDGDRRFGLLNVAAAGKTMFDEEELHLLESVAFQIGTAIQRMRLSE,soluble
16,MGSDKIHHHHHHMVQDRKSTVVITGASSGVGLYAAKALAERGWYVVMACRDVAKAQLAAQSVGIPHQGSYTIMHIDLGSLDSVRQFVKNFRASGHSLDALVCNAAIYMPLIKEPLRSPEGYELTVTTNHLGHFLLCNLMLEDLKKSSSEPRLVILGTVTHNPDELGGKIPPRPDLGDLQGFAEGFKEPISMIDGKKFEPVKAYKDSKVCNVLTMRELHQRYHESTGIVFNSLYPGCVAETPLFRNHYPLFQKIFPLFQKYITKGYVSQELAGERVAAVVADPEYNQSGVYWSWGNRQKEDGKSFVQKVSPQARDDDKGDRLWQLSAKLVGLA,not soluble
17,MTSMATPHVAGIAALLLQAHPSWTPDKVKTALIETADIVKPDEIADIAYGAGRVNAYKAINYDNYAKLVFTGYVANKGSQTHQFVISGASFVTATLYWDNANSDLDLYLYDPNGNQVDYSYTAYYGFEKVGYYNPTDGTWTIKVVSYSGSANYQVDVVSDGSLSQPGSSPSPQPEPTVDAKTFQGLEHHHHHH,soluble
18,MSLAQNMTIKDDFIHAFSSNANEPDWFLDIRRNAFKAYGELDLPFVDKTKITRWNFTKFETFIPFKEGVTNETLPEKVANLVDLDNKEANFYVQMDERPARLQLQQELVDQGVIFTDIISAVKNHPELVKKYFMKDAVQVNEHKLTAFHAALVNGGIFLYVPKNVEVKSPIQAVFVQDKAESPLVNHVLLVADDNSAVTYVENYVTVNNEPKGIVSIVEEVIAEKNARITFGGVDNLASEVTAYVNRRGHIGTDSQIEWALGLMNDGDTINENVTNLMGDGSSADVKTVTVGRGKQTQNVTTRVTHYGKASNGTILSHGVMKERATTIFNGIGHIKHGASKSDAQQESRVLMLSPEARGDANPILLIDENDVVAGHAASVGRVDPLQLFYLMSRGISQKEAERLVIHGFLDPVVRQLPIESVKTMLREVIEGKVREGHHHHHH,soluble
19,MFKKLFGLGSKTNEETIVAPLTGAVKNIEEVPDPVFAGRMMGDGVAIDPTEGVVVSPVDGEIVQLFHTKHAIGIKAKNGTEILIHVGLETVKMEGEGFEAHVSEGQAVKAGDKLISFDLELIREKAKSTITPIVITNTDAAESIKTTVGVTATKGSTEVMKVTMK,not soluble
20,MQIDNISDEQVVIVRMSCYLKKDEIFKNIERYGYQSSDIKKISPPFPLNILPVPKPYYFYLYDTHLNQIYDLAWSCNDFLMFEIFILDRESIKYIDKDKLFKSRETLYSNFKSIKNQCKNYFFCGFDFDAPYFKSGVSQVADYNFVPDAFSLFFI,not soluble
21,MYPDGLTENEKLKVKELCTMVNISDEDAIKLLKENDWDIAISSRRVSKQEDKTLVPGTSREEIDLDRLSSRLRVHGLAFYLPDFGGFPNEFRTFLEKDLIETQTQKRLEASRHLNWWHQFGQKLYPLSTTGDGNCLLHAASLGMWGVHDRQLSLRETLYELLTNGARKEAIRRRWKWVENHMNQSNGLALTLSENEWELEWDVVLGLSSPLPRKQEDNGSNSTDQIYESLEAIHVFALAHVLKRPVVVVSDTILRNAKGEELSPVAFGGIYLPLECPPSQCHRSPLVLCYDSAHFSPLVLMRTETNNKQIIPIIDVNRNLLPVHFAVDPGESFDWSKLETNSNTQTTTDMSQIDKLALISQYMDIIRLDVRRGSIRSSRRVRSAHAQLLTESRGENGQNLPQKSIKPRDLSAHSSDEQPSNNAKGMTLASSGIGSGRHEKWRLINEIRTHVLRTFRISSSTRGKEKLIDTDDCIARMNSTCVLASELLPTHHQYMDKIINEYMKSAKQRFQQNQRTQSDSRKRISRSFSASSLMLTCIGCDSEFKPASQVTNIMCDQCFAWQKMSVLTSNCDQFMGNSGPPCKSSTLPSFGSNDSNQNDKENIVEVLNVVPKDGAKTLTSMRAVEDENGVVHYYMDDEVADS,not soluble
22,MGHHHHHHHHHHSSGHIEGRHMEANGLGPQGFPELKNDTFLRAAWGEETDYTPVWCMRQAGRYLPEFRETRAAQDFFSTCRSPEACCELTLQPLRRFPLDAAIIFSDILVVPQALGMEVTMVPGKGPSFPEPLREEQDLERLRDPEVVASELGYVFQAITLTRQRLAGRVPLIGFAGAPWTLMTYMVEGGGSSTMAQAKRWLYQRPQASHQLLRILTDALVPYLVGQVVAGAQALQLFESHAGHLGPQLFNKLALPYIRDVAKQVKARLREAGLAPVPMIIFAKDGHFALEELAQAGYEVVGLDWTVAPKKARECVGKTVTLQGNLDPCALYASEEEIGQLVKQMLDDFGPHRYIANLGHGLYPDMDPEHVGAFVDAVHKHSRLLRQN,soluble
